Test: soluble on expression in E. coli; label from the status in PepcDB or PDB records
For “MGSDKIHHHHHHMAKEEALAEAQLDSNRKKIQYRNNNISTQFVTPKYISLLIEKYWHEKNKFRRLLIVIECSKYKNESTIFFFRQVMSGEKDWFIRNYCLRILQRFDEVVYLPPKGKGAQEKYNTLVKHFGCDYKEDIGRTPEDIVKELYENDYIEHAKYFDAFISHAVSNADMVDEFVFKLNSLGLVAFVDWKSDRQDLNRSKLSHYTPTILELRMRQSKNLILIRTKESDLSSWVTWEINYFSKLGKKIAVLNLDNEHGKPHELIDTYPTVRIIDGNILVFNKSKQHKLVDWINES”, the “soluble on expression in E. coli” value was “not soluble”.
For “MGSDKIHHHHHHMAKLLPYQKRWINDRAPVKFWEKSRRIGASWGDAADSALVASKVKDDGGMSTYYLSYNKDMTRQYVADVAGWAKKFNLVAGELEEIVLADEDKDVTIYQVRFASGHVVQGLSSNPSNLRSKQGRVRIDEAAFVEDLGELLKAAIALTMWGGDVAVISTHNGEDSEFNQYIQDIRAGKREYSLHRTDLDDALAEGLYKAICSAKGLTWSVEAEIRWRQKLIADYGDGADEELFCVPSRSSGNWLSRNLIEPCMSAEIPVLRWSPPTANFVDWPLDRAYREVQDWCEGELRPLLDKLHREYVGCRHFFGEDFGRSGDLTVDVPLLELENLSLVTPFLLELRNAPYRTQEQMLAYFVDRLPRFSGGALDARGNGQALAEYARQRYGPELIQEVMLSQGWYREHMPPLKARLEDRTILLPKDAGVLDDLRGIKVFKGIARPPEASIKGKDGQRHCDSAVALALALYACNSIEAGEEWACATAGGGMARRMTHGY”, the “soluble on expression in E. coli” value was “not soluble”.
With “MGSDKIHHHHHHMAKSKSTYSCTECGGQTLKWQGQCPHCQAWNTLVEAMSEKAAARFTPVSESREVQSLSEVEAEEEQRYSTGLLEFDRVLGGGLVQGGVVLLGGDPGIGKSTLLLQALCNMSLLPLARNVLYVSGEESARQVAMRAKRMGVDAKALHLLAEIRLERIQEVLAERKPDVAVIDSIQTVYSDALQSAPGSVAQVRECAAQLTRLAKASGTGMILVGHVTKEGALAGPRVLEHMVDTVLYFEGDTHSSFRLIRAFKNRFGAVNELGVFAMTEKGLREVSNPSALFLSHHGGQVPGSCIMVTQEGTRPLLVEIQALVDEAHSPNARRLSVGLEQNRLAMLLAVLHRHAGIACFDQDVFVNAVGGVKITEPGADLAVLLAIVSSLKNRPLPEKTVVFGEVGLAGEVRPVQRGLERLREAAKLGFVQAIVPKANKPKATPPGIEIIAVERVEEAVARMR” the “soluble on expression in E. coli” value was “not soluble”.
For “MGSDKIHHHHHHMALRIYGDSISGNCLKVKWTADRLGIAYDWIETNVLTAETRTSAFMALNPAGQVPLAVFPDGRPLAQSNAIIFHLAEGSDLIPGNAFDRAKMLEWMFWEQYSHEPYIAVARFQVLYLGKPVESLEPRLIERGADALARLETQLQRSTFLVGDKLTLADVALVAYTRVAHEGGFDLSLYPAVEAWVGRVEADLGIR”, the “soluble on expression in E. coli” value was “not soluble”.
In the case of “MGSDKIHHHHHHMALTQITQTVSPQPTPPELRKYDYDLVIVGGGIVGLTLASALKDSGLNILLIEAKVSSAAVAKGQAYAVHLLSALIYQGIGIWDKILPQIAKYRQVRLSDADYPGVVEFETTDLGTPELGYVAEHQALLEPLQEFVQNCPNVTYLCPAEVVSTNYQQNEVVIAVKIADQLNTIRSKLLVAADGSRSPIRQAAGIKTHGWKYWQSCIVAFVKPEKPHNDTAYERFWPSGPFAILPLPGNRCRIVWTAPHDEAKALCALNDEEFLQELSQRFGKQMGKLELLGDRFVFQVQLMQSDRYVLPRLALVGDAAHNCHPVGGQGLNLGIRDVAALAQVIQKAHQAGEDIGNIRVLKRYESWRQKENLAILGFTDMLDRMFSNQFPPLVFVRRLGLWFLQSVPALKTFMLKLMIGLKGKTPELAKR”, the “soluble on expression in E. coli” value is reported as “not soluble”.
With “MGSDKIHHHHHHMAMVVLGAGGGLGRAITLELSKQYPDERIFALSRQPEVPETDSSDVTYCRIEDYDEKALGAWVSEFKNNGEQLSGVVSTIGMLHDEETFPEKKLTDITADNLNKLFSVNAVKPMLALKAFLPILDRKKTRFWVQLSAKVGSIEDNYLGGWYAYRSSKAGLNMLLKTASIELKRTHKNLIVAAIHPGTTDTRLSEPFQERISTDKLYSPELSAERIVAVVKNLKPENTGALWHWDGSRLPY” the “soluble on expression in E. coli” value was “not soluble”.
With “MGSDKIHHHHHHMANELKVLEGMDVVALARKHSDQATVSGQVIPWQTSLSFDPSVDSDSTVTKDGNVATRSSASTDLEVEFLNNTAAIADVMYDSLFDGELLDFWILYRKRKNSAGKYYAWYMQVTVQEDSSDNDPDDHSTRDVTFSVNGTPKRGWTTLDDETQEQVDYVFLGVGKVTDTDKTGGGTVWDKDVDPGTNTADTAPAQSSSGTAPAQGGSSTGA” the “soluble on expression in E. coli” value was “not soluble”.
With “MGSDKIHHHHHHMANPQSPHATLQLPQGMEITAEIKPGYDAILTREALELVAALHRTFEPRRQQLLQARAERTKRLDAGERPDFLAETKSVREGDWKIAPLPQDLQCRRVEITGPVERKMIINALNSGADSYMTDFEDSNAPSWDNQITGHINLKDAVRRTISLEQNGKSYALNDKVATLIVRPRGWHLDEKHVKVDGKRVSGSIFDFALFMVHNAKELLARGSGPYFYLPKMESHLEARLWNDIFVAAQEAVGVPRGTIRATVLIETILAAFEMDEILYELREHSSGLNAGRWDYIFSAIKKFKSDRDFCLADRSQITMTSPFMRAYALLLLKTCHRRNAPAIGGMSALIPIRNDPAANDKAMAGVRSDKARDAGDGYDGGWVAHPGLVAIAMEEFVKVLGDKPNQIGKQRDDVLVTATDLLDFRPETPITENGLRNNINVGIHYLGAWLTGNGCVPIHNLMEDAATAEISRSQVWQWIRSPKGKLDDGRKVTAELVRAMSAQELDKVKQAVGGDTKPYERAAQIFEEMSTSEQFTDFLTLPLYEEI” the “soluble on expression in E. coli” value was “not soluble”.
In the case of “MGSDKIHHHHHHMANQVDIMKDEVAKMTLDFTEPQEILLEISPSLQKSAWQESQVYATPSSRWCAYTNQICLYAFLNWIKTESVSKASVWYSSPGIPAFWEFVNGTAILLEEKRVVLIPSEAIDDSELEVPQEWVDIPSWVADYYLAVQVTPDGEWVRIWGYITHQELKSLAHYDQVDRTYCIDARYLIKDLNAFWITYQFCIKEEMKAAIAPLPELSTAQAENMQQLLSDSSVTFVRLAVPFTTWAALLDNEQWRQCLYEQHQRCLRRAVPTQFSQVQVNLSRWLLQIYDASWQAIETFFEPNTSSLAFNFRSSSGLNAAAIKRAKLIDLGMQIEAQKVILLVALMPEVNQQVSIRVQLHPACNQPYLPANIKLVLLSEQGEILQEVQARVQDMYVQLKLFDGEVGERFSIQVTLDSCQITENFVI”, the “soluble on expression in E. coli” value is reported as “not soluble”.
For “MGSDKIHHHHHHMAQDIRVFKSKRDIETAVIQLILEEDFSKLTIQQICQKALVSRSTFYSHYLDKYDVVEQLVAKTITQLETIFSQKYQSQVSPENLKDYLADIYQFYQENARLLKALLKTPLTGTGNFEEAFSKLCQTYINHLAATTKDNDHLPPQLLAEIFTANVVTLMKWIIEHGPSENVTHFADWLHDLFLQYLQE”, the “soluble on expression in E. coli” value was “not soluble”.
In the case of “MGSDKIHHHHHHMAQGTLYIVSAPSGAGKSSLIQALLKTQPLYDTQVSVSHTTRQPRPGEVHGEHYFFVNHDEFKEMISRDAFLEHAEVFGNYYGTSREAIEQVLATGVDVFLDIDWQGAQQIRQKMPHARSIFILPPSKIELDRRLRGRGQDSEEVIAKRMAQAVAEMSHYAEYDYLIVNDDFDTALTDLKTIIRAERLRMSRQKQRHDALISKLLAD”, the “soluble on expression in E. coli” value is reported as “soluble”.
For “MGSDKIHHHHHHMAQIISINDNQRLQLEPLEVPSRLLLGPGPSNAHPSVLQAMNVSPVGHLDPAFLALMDEIQSLLRYVWQTENPLTIAVSGTGTAAMEATIANAVEPGDVVLIGVAGYFGNRLVDMAGRYGADVRTISKPWGEVFSLEELRTALETHRPAILALVHAETSTGARQPLEGVGELCREFGTLLLVDTVTSLGGVPIFLDAWGVDLAYSCSQKGLGCSPGASPFTMSSRAIEKLQRRRTKVANWYLDMNLLGKYWGSERVYHHTAPINLYYALREALRLIAQEGLANCWQRHQKNVEYLWERLEDIGLSLHVEKEYRLPTLTTVCIPDGVDGKAVARRLLNEHNIEVGGGLGELAGKVWRVGLMGFNSRKESVDQLIPALEQVLR”, the “soluble on expression in E. coli” value was “soluble”.
For “MGSDKIHHHHHHMAQIIVVTSGKGGVGKTTSSAAIATGLALKGKKTVVIDFDIGLRNLDLIMGCERRVVYDFVNVINGEANLNQALIKDKRCDKLFILPASQTRDKDALTKEGVGRVLENLAKDFDYIVCDSPAGIEQGAMMALYFADIAIVTTNPEVSSVRDSDRILGMLQSRSRRAELSLEPIKEYLLLTRYSPARVKTGEMLSVEDVKEILAIELLGVIPESQSVLKASNSGVPVIIDQESDAGLAYGDTVARLLGDDVPVRFITEEKKGFLKRIFGS”, the “soluble on expression in E. coli” value was “not soluble”.
For “MGSDKIHHHHHHMARLRVYELARKLNMSPKELLQELEELGVNVKSHMSYVDEEMANIIIDLLEEDNRKAKQPSKPKKEKGEEEVEKEVVEKKKKKKITLKPDELKLDIIAEKIGVPQNKIIQDMFVKRGIALRPGQILKLEEVEQILKEYKIEIEIEEEQQTSVEEVDEFELLEKRYQELYEKEKDKLVPRPPVVTVMGHVDHGKTTLLDRIRSTRVAEREEGGITQSIGAYQVEVNGKKITFIDTPGHELFTEMRARGAQATDIVVLVVAADDGVMPQTIEAYNHAKAANVPIIVAINKIDKPNANVEKTKQELVEKLGLIPEEWGGDTIVVPISARTGQGVDELLEMILLVAEMNEIKCYPEGPARAVIIESKLDKKMGPVASAIVKDGVLKVGDAVVASNTYGRVRNLFDDNMRPIREAYPSQPVMILGFEDVPDVHSNVYVVESAEKAKEIVEKRLQRLEAQKQSRKHINLEELMKMMQEKEKKVLNLILKADTYGSVAALKNAINKLQSKEIELNIVHAGVGEISTSDVMLAAAVDGVILGFRVKVNNQARRLAEQEGVDVRTYSIIYKLVEDLKLALEGMLEPEEVEEVIGHGEIRKVFKISKVGKVAGVQMLDGKADRNGFVRIYRNGQLVFGGKIESLKHYKEDVSVVEAPQECGIKFAGFDDIHEGDELEFYVIRKVKRKPTFVEEQADQEQK”, the “soluble on expression in E. coli” value was “not soluble”.
In the case of “MGSDKIHHHHHHMASFVDKLHPLVLNIGLAIHNADWNWKNVNSPFTRLYYVTEGTAQVLISGKTQILKANHMYFIPAFTKHSYICNSYFSHYYLHIYEEHQSDSNLLDNWDFPIEIPAVEIDLALFQRLCTINPHMTLQKSDPTSYDNNYTLMQNLLKNKQRTLSDKIESRGIVYQLLARFLKRAQVKMELKDNRIEEAIHYIRKHINETIDLRVLAENSCLSKDHFIRLFKKETGDTPLKYINRKKIEKAQLILITDDMSIKNVALNLAFEDYSYFNRLFKKITGITPQEYRTSYHS”, the “soluble on expression in E. coli” value is reported as “not soluble”.
For “MGSDKIHHHHHHMASIRELHEQLVKKERSAVEITQETLDHIQELEPKLHSFLHITAQQALEQARAVDAKIAAGEEIGLLAGIPIGVKDNMCTKGIPTTCASRILENFVPPYESTVTQKLLDAGAVVVGKTNLDEFAMGSSTENSAYQVTANPWDLSRVPGGSSGGSAAAVAAEECVVALGSDTGGSIRQPASFCGVVGLKPTYGLVSRYGLVAYASSLDQIGPFGKSVEDTAILLKAIAGYDHQDSTSLKVEIPDYVASLKPDLKARSKLRIGIIKETFGEGLDSVVEQAVTKAIEQLQRLGAEVHVISCPNFRYGVPSYYIIAPSEASANLARYDGVKYGWRAPEGDNLLSMYKRTRATGFGAEVKRRIMIGTYALSAGYYDAYYLKAQKVRTLIKQDFENAFKNVDVLVSPTAPTTAFKAGEKTADPISMYLNDLMTIPVNLAGLPGLSVPCGFDEQGLPIGLQLIGKVLREDQLLQIAYAYEQSTSWHLSQPKIS”, the “soluble on expression in E. coli” value was “not soluble”.
In the case of “MGSDKIHHHHHHMATLETLDLSAGFAADLVQATEADAVTGYRRFHLGAFAFQRDEYFVKISWPAKGSTRTHAIPADAFLRAMMRDVAWGFFYGWVNFDHVFGTRNHYGKVDVYAGTFNGILKEAGVDYTETFETPTIMATFKAMLHDWTNEGFDPFAAPEETGTAFGRKHGENGAAIERTRIATRRMPGLEGDSPLRDELPVNRAFRDVGQDEPEVHVKPGFEGELHAFNLFKYLSRSDVTWNPSVTSVCGRSLFCPTTEEFILPVFHGNDRVEWFLQLSDEIVWDIGDKNTGAPRARITMRAGDICAMPADIRHQGYSTKRSMLLVWENATPDLPQRYESGELAPYPIAF”, the “soluble on expression in E. coli” value is reported as “not soluble”.

Reference: the DeepSol protein solubility set
